From patent US20070231333A1, “ANTI-5T4 ANTIBODIES AND USES THEREOF” (Wyeth, priority 2006, published 2007)

T1: human 5T4 antigen (Homo sapiens, UniProt Q13641)
T1 sequence (Q13641 32-420): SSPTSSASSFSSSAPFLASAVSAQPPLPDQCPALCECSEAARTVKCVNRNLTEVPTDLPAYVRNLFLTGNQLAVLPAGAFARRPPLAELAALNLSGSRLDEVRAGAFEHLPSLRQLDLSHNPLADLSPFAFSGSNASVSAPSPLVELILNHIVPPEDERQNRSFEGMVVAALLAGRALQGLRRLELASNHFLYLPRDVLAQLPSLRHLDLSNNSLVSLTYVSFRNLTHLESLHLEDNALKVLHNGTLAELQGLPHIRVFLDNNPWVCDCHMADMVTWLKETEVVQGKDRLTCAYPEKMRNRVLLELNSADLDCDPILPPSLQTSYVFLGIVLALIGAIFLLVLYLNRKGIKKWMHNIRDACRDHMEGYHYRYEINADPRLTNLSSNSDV

T2: rat 5T4 ectodomain/Fc fusion protein (Rattus norvegicus, UniProt Q5PQV5)
T2 construct: rat 5T4 (amino acids 1-361); human IgG1 Fc; made in house; host or cells: COS-1 cells (transient transfection)
T2 sequence (Q5PQV5 32-361): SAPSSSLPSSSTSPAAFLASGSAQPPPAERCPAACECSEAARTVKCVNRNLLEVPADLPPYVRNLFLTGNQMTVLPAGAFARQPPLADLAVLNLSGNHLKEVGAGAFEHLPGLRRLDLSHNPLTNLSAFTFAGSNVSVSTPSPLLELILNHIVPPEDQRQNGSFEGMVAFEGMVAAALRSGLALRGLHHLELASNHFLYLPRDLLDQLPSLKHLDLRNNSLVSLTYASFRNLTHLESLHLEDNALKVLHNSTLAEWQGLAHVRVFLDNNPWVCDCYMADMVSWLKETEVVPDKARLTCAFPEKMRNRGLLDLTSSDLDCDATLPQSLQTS

T3: mouse 5T4 ectodomain/Fc fusion protein (Mus musculus, UniProt Q9Z0L0)
T3 construct: prepared using mouse 5T4 (amino acids 1-361); human IgG1 Fc; made in house; host or cells: COS-1 cells (transient transfection)
T3 sequence (Q9Z0L0 32-361): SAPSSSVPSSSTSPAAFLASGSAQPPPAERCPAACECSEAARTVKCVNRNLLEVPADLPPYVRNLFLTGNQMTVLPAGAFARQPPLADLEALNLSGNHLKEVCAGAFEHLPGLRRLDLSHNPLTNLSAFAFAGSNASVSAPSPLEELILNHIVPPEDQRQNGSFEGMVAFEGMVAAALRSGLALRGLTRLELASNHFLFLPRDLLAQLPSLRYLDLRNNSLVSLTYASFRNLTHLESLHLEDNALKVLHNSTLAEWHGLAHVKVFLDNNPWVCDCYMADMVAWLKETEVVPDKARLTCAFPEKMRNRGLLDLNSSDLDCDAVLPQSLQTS


Tests used:
[1] = target: T1, human 5T4 antigen; test: BIACORE analysis of antibody binding to human 5T4 antigen immobilized on a CM5 chip; conditions: chimeric and humanized antibodies, Table 12
Procedure: To assess the binding specificity and affinity of the A1, A2, and A3 antibodies, BIACORE® analysis was performed using human 5T4 antigen immobilized on a CM5 chip. BIACORE® technology utilizes changes in the refractive index at the surface layer upon binding of the antibody to the 5T4 antigen immobilized on the layer. Binding is detected by surface plasmon resonance (SPR) of laser light refracting from the surface. Analysis of the signal kinetics on rate and off rate allows discrimination between non-specific and specific interactions. The H8 anti-5T4 antibody was used as a control. H8 is a hybridoma-generated monoclonal mouse IgG1 antibody described in PCT International Publication No. WO 98/55607 and in Forsberg et al. (1997) J. Biol. Chem. 272(19):[…].
To assess the binding specificity and affinity of the chimeric and humanized H8, A1, A2, and A3 antibodies, BIACORE® analysis was performed using human 5T4 antigen immobilized on a CM5 chip. See Example 2.

[2] = target: T1, human 5T4 antigen; test: BIACORE competition assay: second antibody after saturation with first antibody; assay type: binding
Procedure: Epitope mapping of the H8, A1, A2, and A3 antibodies was also performed using BIACORE® using a CM5 chip with bound human 5T4 antigen. The chip was saturated with H8, A1, A2, or A3 antibody, and a first response was measured. The chip was then saturated with a second antibody from among the H8, A1, A2, and A3 antibodies, and a second response was measured. For multiple experiments, the chip was regenerated by dissociation of the bound antibodies in 10 mM glycine, pH 1.5, followed by a buffer wash. The percentages shown are the response units measured upon binding by a second antibody directly to the CM5 chip divided by the response units measured upon binding of the second antibody to a CM5 chip saturated with a first antibody.
The epitopes bound by the H8 and A3 antibodies are sterically close to each other such that the rate of association with antigen is decreased when binding of H8 is assayed in the presence of A3, and vice versa. Similar results were obtained using the chimeric and humanized H8, A1, A2, and A3 antibodies, which were prepared as described in Example 7 herein below.

[3] = target: T2, rat 5T4 ectodomain/Fc fusion protein; test: Cross-species reactivity ELISA, 5T4 ectodomain/Fc fusion proteins; assay type: binding; set-up: key: +: binding; −: no binding; +/−: partial binding
Procedure: (§1) The cross-species reactivity of anti-5T4 antibodies disclosed herein was assayed to determine relevant species for in vivo efficacy studies and toxicology analysis. Correlation of binding activity and relatedness of the different 5T4 ectodomains was also used to further describe the epitope bound by each antibody. Binding assays were performed using 5T4 ectodomains from various species fused to human IgG1 Fc. To assay binding of anti-5T4 antibodies, 5T4 ectodomain/Fc fusion proteins were transiently transfected into COS-1 cells, and ELISA assays were performed. Non-relevant human IgG4 and IgG1 antibodies were used as controls.

[4] = target: T3, mouse 5T4 ectodomain/Fc fusion protein; test: as above; assay type: binding; set-up: key: +: binding; −: no binding; +/−: partial binding
Procedure: as §1

[5] = first antibody chimeric A3, 19 seconds after injection of second antibody
[6] = first antibody chimeric A3, 37.5 seconds after injection of second antibody
[7] = first antibody chimeric A3, 75 seconds after injection of second antibody
[8] = first antibody chimeric A3, 150 seconds after injection of second antibody
[9] = first antibody chimeric A3, 300 seconds after injection of second antibody
[10] = first antibody chimeric A3, 600 seconds after injection of second antibody

KA [1] [M⁻¹]	ka [1] [M⁻¹ s⁻¹]	kd [1] [s⁻¹]	Percentage of Second Antibody Bound Following Saturation With First Antibody [2, 5] [%]	Percentage of Second Antibody Bound Following Saturation With First Antibody [2, 6] [%]	Percentage of Second Antibody Bound Following Saturation With First Antibody [2, 7] [%]	Percentage of Second Antibody Bound Following Saturation With First Antibody [2, 8] [%]	Percentage of Second Antibody Bound Following Saturation With First Antibody [2, 9] [%]	Percentage of Second Antibody Bound Following Saturation With First Antibody [2, 10] [%]	cross-reactivity (binding class) [3]	cross-reactivity (binding class) [4]	also measured	Molecule
1.7e+09	27000	1.6e-05									Kd [1]: 5.9 nM	Chimeric A3 + C91Y: chimeric A3 antibody bearing C91Y mutation in the heavy chain variable region (antibody, V domains shown) VH: EVQLVESGGGLVQPKGSLKLSCAASGFTFNTYAMNWVRQAPGKGLEWVARIRSKSNNYATYYADSVKDRFTISRDDSQSMLYLQMNNLKTEDTAMYYCVRQWDYDVRAMNYWGQGTSVTVSS VL: DIVMTQSHIFMSTSVGDRVSITCKASQDVDTAVAWYQQKPGQSPKLLIYWASTRLTGVPDRFTGSGSGTDFTLTISNVQSEDLADYFCQQYSSYPYTFGGGTKLEIK
2.3e+09	150000	6.7e-05	98.8	96.5	97.0	98.0	98.8	99.6	+/−	−	Percentage of Second Antibody Bound Following Saturation With First Antibody ([2]; first antibody chimeric A2, 19 seconds after injection of second antibody): 92.5%; Percentage of Second Antibody Bound Following Saturation With First Antibody ([2]; first antibody chimeric A2, 37.5 seconds after injection of second antibody): 90.6%; Percentage of Second Antibody Bound Following Saturation With First Antibody ([2]; first antibody chimeric A2, 75 seconds after injection of second antibody): 91.4%; Percentage of Second Antibody Bound Following Saturation With First Antibody ([2]; first antibody chimeric A2, 300 seconds after injection of second antibody): 93.9%; Percentage of Second Antibody Bound Following Saturation With First Antibody ([2]; first antibody chimeric A2, 600 seconds after injection of second antibody): 95.5%	chimeric A1: chimeric A1 antibody: murine A1 variable regions, human IgG4 heavy chain and human kappa light chain constant regions (antibody, V domains shown) VH: QIQLVQSGPELKKPGETVKISCKASGYTFTNFGMNWVKQGPGEGLKWMGWINTNTGEPRYAEEFKGRCAFSLETTASTAYLQINNLKNEDTATYFCARDWDGAYFFDYWGQGTTLTVSS VL: SIVMTQTPKFLLVSAGDRVTITCKASQSVSNDVAWYQQKPGQSPKLLINFATNRYTGVPNRFTGSGYGTDFTFTISTVQAEDLALYFCQQDYSSPWTFGGGTKLEIK
5.7e+08	140000	0.00025	89.2	88.4	89.8	91.5	92.9	94.3	−	−	Percentage of Second Antibody Bound Following Saturation With First Antibody ([2]; first antibody chimeric A1, 19 seconds after injection of second antibody): 102.9%; Percentage of Second Antibody Bound Following Saturation With First Antibody ([2]; first antibody chimeric A1, 37.5 seconds after injection of second antibody): 93.5%; Percentage of Second Antibody Bound Following Saturation With First Antibody ([2]; first antibody chimeric A1, 75 seconds after injection of second antibody): 90.1%; Percentage of Second Antibody Bound Following Saturation With First Antibody ([2]; first antibody chimeric A1, 150 seconds after injection of second antibody): 89.0%; Percentage of Second Antibody Bound Following Saturation With First Antibody ([2]; first antibody chimeric A1, 300 seconds after injection of second antibody): 88.9%; Percentage of Second Antibody Bound Following Saturation With First Antibody ([2]; first antibody chimeric A1, 600 seconds after injection of second antibody): 89.1%	chimeric A2: chimeric A2 antibody: murine A2 variable regions, human IgG4 heavy chain and human kappa light chain constant regions (antibody, V domains shown) VH: QVQLQQSRPELVKPGASVKMSCKASGYTFTDYVISWVKQRTGQGLEWIGEIYPGSNSIYYNEKFKGRATLTADKSSSTAYMQLSSLTSEDSAVYFCAMGGNYGFDYWGQGTTLTVSS VL: QIVLTQSPAIMSASLGERVTLTCTASSSVNSNYLHWYQQKPGSSPKLWIYSTSNLASGVPARFSGSGSGTSYSLTISSMEAEDAATYYCHQYHRSPLTFGAGTKLELK
2.6e+09	170000	6.3e-05										Chimeric A1 + C67F: chimeric A1 antibody bearing C67F mutation in the heavy chain variable region (antibody, V domains shown) VH: QIQLVQSGPELKKPGETVKISCKASGYTFTNFGMNWVKQGPGEGLKWMGWINTNTGEPRYAEEFKGRFAFSLETTASTAYLQINNLKNEDTATYFCARDWDGAYFFDYWGQGTTLTVSS VL: SIVMTQTPKFLLVSAGDRVTITCKASQSVSNDVAWYQQKPGQSPKLLINFATNRYTGVPNRFTGSGYGTDFTFTISTVQAEDLALYFCQQDYSSPWTFGGGTKLEIK
